The target in test [1] is CaV1.2 (α1C) L-type calcium channel subunit. The experiment in a line: cell-based or functional assay.
For test [2], the target named is T1, Protein A Sepharose CL-4B (Pharmacia) (UniProt P38507 37-477).
T1 construct: Used alone (without anti-CaV1.2 antibody) as the negative control of the reciprocal immunoprecipitation; also called protein-A beads
The experiment in a line: immunoprecipitation from HEK293 lysates with protein-A beads only, Western blot with anti-HA Ab. For orientation: In western blotting, separated proteins are transferred to a membrane and probed.
Method: Formation of a stable complex of α₂δ-4 with other channel subunits was tested by coimmunprecipitation. The α₂δ-4 subunit was first tagged with an HA epitope and co-transfected with CaV1.2 (α1C) and β₃ subunits into HEK cells. Co-immunoprecipitation was carried out with transient transfected HEK 293 cells by constructs of α1C, β₃ and α₂δ-4 tagged with HA epitope. Two days after the transfection, the cells (from two 150 mm plates) were harvested and washed with PBS. The cells were then resuspended in 2 ml of detergent extraction buffer: 1% (vol/vol) Nonidet P-40, 0.5% deoxycholate, 150 mM NaCl, 5 mM EDTA, 50 mM Tris-HCl (pH 8.0) and 20 μl of protease inhibitor cocktail (Sigma), followed 10 passages each through 20 and 26-gauge needles. Cell extracts were cleared by centrifugation. […] After incubated at 4° C. for overnight, the beads were precipitated by brief centrifugation, and washed 3 times with 1 ml of lysis buffer. Finally, 100 μl of 1×SDS loading buffer were added, and 20 μl were subjected to 4-20% SDS. The co-precipitated subunits were then analyzed by Western blot with indicated antibodies.

B1: human calcium channel α2δ-4 subunit (other)
chain: MAVALGTRRRDRVKLWADTFGGDLYNTVTKYSGSLLLQKKYKDVESSLKIEEVDGLELVRKFSEDMENMLRRKVEAVQNLVEAAEEADLNHEFNESLVFDYYNSVLINERDEKGNFVELGAEFLLESNAHFSNLPVNTSISSVQLPTNVYNKDPDILNGVYMSEALNAVFVENFQRDPTLTWQYFGSATGFFRIYPGIKWTPDENGVITFDCRNRGWYIQAATSPKDIVILVDVSGSMKGLRMTIAKHTITTILDTLGENDFVNIIAYNDYVHYIEPCFKGILVQADRDNREHFKLLVEELMVKGVGVVDQALREAFQILKQFQEAKQGSLCNQAIMLISDGAVEDYEPVFEKYNWPDCKVRVFTYLIGREVSFADRMKWIACNNKGYYTQISTLADTQENVMEYLHVLSRPMVINHDHDIIWTEAYMDSKLLSSQAQSLTLLTTVAMPVFSKKNETRSHGILLGVVGSDVALRELMKLAPRYKLGVHGYAFLNTNNGYILSHPDLRPLYREGKKLKPKPNYNSVDLSEVEWEDQAESLRTAMINRETGTLSMDVKVPMDKGKRVLFLTNDYFFTDISDTPFSLGAVLSRGHGEYILLGNTSVEEGLHDLLHPDLALAGDWIYCITDIDPDHRKLSQLEAMIRFLTRKDPDLECDEELVREVLFDAVVTAPMEAYWTALALNMSEESEHVVDMAFLGTRAGLLRSSLFVGSEKVSDRKFLTPEDEASVFTLDRFPLWYRQASEHPAGSFVFNLRWAEGPESAGEPMVVTASTAVAVTVDKRTAIAAAAGVQMKLEFLQRKFWAATRQCSTVDGPYTQSCEDSDLDCFVIDNNGFILISKRSRETGRFLGEVDGAVLTQLLSMGVFSQVTMYDYQAMCKPSSHHHSAAQPLVSPISAFLTATRWLLQELVLFLLEWSVWGSWYDRGAEAKSVFHHSHKHKKQDPLQPCDTEYPVFVYQPAIREANGIVECGPCQKVFVVQQIPNSNLLLLVTDPTCDCSIFPPVLQEATEVKYNASVKCDRMRSQKLRRRPDSCHAFHPEVRVEADRGWAGFSSPNPLCLGLCPCRQEHIGMPMNTPVPVLLGGNIRVYAL
As to B1, the “Ca^2+ influx (fluorescence change after depolarization with 50 mM KCl) in transfected HEK 293 cells” value in test [1] is 6 fold.

B2: human calcium channel α2δ-4 subunit tagged with HA epitope (other, not shown: small tags and cut ends)
chain: MAVALGTRRRDRVKLWADTFGGDLYNTVTKYSGSLLLQKKYKDVESSLKIEEVDGLELVRKFSEDMENMLRRKVEAVQNLVEAAEEADLNHEFNESLVFDYYNSVLINERDEKGNFVELGAEFLLESNAHFSNLPVNTSISSVQLPTNVYNKDPDILNGVYMSEALNAVFVENFQRDPTLTWQYFGSATGFFRIYPGIKWTPDENGVITFDCRNRGWYIQAATSPKDIVILVDVSGSMKGLRMTIAKHTITTILDTLGENDFVNIIAYNDYVHYIEPCFKGILVQADRDNREHFKLLVEELMVKGVGVVDQALREAFQILKQFQEAKQGSLCNQAIMLISDGAVEDYEPVFEKYNWPDCKVRVFTYLIGREVSFADRMKWIACNNKGYYTQISTLADTQENVMEYLHVLSRPMVINHDHDIIWTEAYMDSKLLSSQAQSLTLLTTVAMPVFSKKNETRSHGILLGVVGSDVALRELMKLAPRYKLGVHGYAFLNTNNGYILSHPDLRPLYREGKKLKPKPNYNSVDLSEVEWEDQAESLRTAMINRETGTLSMDVKVPMDKGKRVLFLTNDYFFTDISDTPFSLGAVLSRGHGEYILLGNTSVEEGLHDLLHPDLALAGDWIYCITDIDPDHRKLSQLEAMIRFLTRKDPDLECDEELVREVLFDAVVTAPMEAYWTALALNMSEESEHVVDMAFLGTRAGLLRSSLFVGSEKVSDRKFLTPEDEASVFTLDRFPLWYRQASEHPAGSFVFNLRWAEGPESAGEPMVVTASTAVAVTVDKRTAIAAAAGVQMKLEFLQRKFWAATRQCSTVDGPYTQSCEDSDLDCFVIDNNGFILISKRSRETGRFLGEVDGAVLTQLLSMGVFSQVTMYDYQAMCKPSSHHHSAAQPLVSPISAFLTATRWLLQELVLFLLEWSVWGSWYDRGAEAKSVFHHSHKHKKQDPLQPCDTEYPVFVYQPAIREANGIVECGPCQKVFVVQQIPNSNLLLLVTDPTCDCSIFPPVLQEATEVKYNASVKCDRMRSQKLRRRPDSCHAFHPEVRVEADRGWAGFSSPNPLCLGLCPCRQEHIGMPMNTPVPVLLGGNIRVYAL
notes: Expressed by transient co-transfection with CaV1.2 (α1C) and β3 in HEK293 cells and tested in detergent lysates; also called α2δ-4(HA)
For B2, the binding result in test [2] is listed as “no binding”.

Values taken from patent US20030170785A1 (ORTHO MCNEIL PHARMACEUTICAL, published 2003).
